From CN117192118A (DRAGONBOAT BIOPHARMACEUTICAL SHANGHAI CO LTD, dated 2023)

Key:
[1] = biological target: T1, 人CLDN18.2 (human, UniProt P56856-2 1-261, limits assumed); experiment: ELISA
T1 construct: The construct and its source are not described; P56856 is the CLDN18 entry; CLDN18.2 is its isoform 2 (A2)
T1 sequence (looked up): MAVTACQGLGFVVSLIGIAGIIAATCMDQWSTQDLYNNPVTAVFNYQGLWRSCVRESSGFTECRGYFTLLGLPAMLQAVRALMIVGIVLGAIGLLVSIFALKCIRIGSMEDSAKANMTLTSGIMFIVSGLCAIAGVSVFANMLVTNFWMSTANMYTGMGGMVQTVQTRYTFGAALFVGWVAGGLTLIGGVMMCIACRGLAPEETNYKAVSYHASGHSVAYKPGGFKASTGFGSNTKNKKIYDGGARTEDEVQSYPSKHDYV

[2] = biological target: T2, 人CD47 (human, UniProt Q08722 19-139, limits assumed); experiment: ELISA
T2 construct: The construct is not described
T2 sequence (Q08722 19-139 limits assumed): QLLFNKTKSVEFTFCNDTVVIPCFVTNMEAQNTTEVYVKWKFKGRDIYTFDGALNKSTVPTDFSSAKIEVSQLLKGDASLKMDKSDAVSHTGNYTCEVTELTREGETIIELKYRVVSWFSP

[3] = biological target: T2, 人CD47; experiment: ELISA competition, blocking of CD47 binding to SIRPα
[4] = biological target: T1, 人CLDN18.2; experiment: BLI
[5] = biological target: T2, 人CD47; experiment: BLI

B1: 抗CD47-CLDN18.2双特异性抗体双抗A (bispecific antibody, human IgG1, kappa)
heavy: not shown
light: DIQMTQSPSSLSASVGDRVTITCRASQDISNHLNWYQQKPGKAPKLLIYYTSRIHSGVPSSFRGSGSGTDYTLTISSLQPEDIATYFCQQGYTLPFTFGSGTKLEIKRTVAAPSVFIFPPSDEQLKSGTASVVCLLNNFYPREAKVQWKVDNALQSGNSQESVTEQDSKDSTYSLSSTLTLSKADYEKHKVYACEVTHQGLSSPVTKSFNRGEC
notes: The short chain is the A7H3L3 kappa light chain; Expressed in CHO-K1; also called 本发明抗体
EC50 [1]: 0.121 µg/mL | EC50 [2]: 0.0462 µg/mL | IC50 [3]: 2.2 µg/mL | Kd [4]: 1.87 nM | Kd [5]: 21.8 nM
